Test results: US20150099282A1, “NADP-DEPENDENT ALANINE DEHYDROGENASE” (EVONIK INDUSTRIES AG, priority 2012, published 2015)

B1: Bacillus subtilis alanine dehydrogenase (BasAlaDH), wild type (N-terminal His6-tag) (Bacillus subtilis subsp. subtilis str. 168) (protein)
chain: MIIGVPKEIKNNENRVALTPGGVSQLISNGHRVLVETGAGLGSGFENEAYESAGAEIIADPKQVWDAEMVMKVKEPLPEEYVYFRKGLVLFTYLHLAAEPELAQALKDKGVTAIAYETVSEGRTLPLLTPMSEVAGRMAAQIGAQFLEKPKGGKGILLAGVPGVSRGKVTIIGGGVVGTNAAKMAVGLGADVTIIDLNADRLRQLDDIFGHQIKTLISNPVNIADAVAEADLLICAVLIPGAKAPTLVTEEMVKQMKPGSVIVDVAIDQGGIVETVDHITTHDQPTYEKHGVVHYAVANMPGAVPRTSTIALTNVTVPYALQIANKGAVKALADNTALRAGLNTANGHVTYEAVARDLGYEYVPAEKALQDESSVAGA
B2: Bacillus subtilis alanine dehydrogenase (BasAlaDH) variant D196A/L197R (Asp196Ala, Leu197Arg), SEQ ID No. 1 (with His-Tag: SEQ ID No. 22) (Bacillus subtilis … (protein)
chain: MASRGSHHHHHHGAIIGVPKEIKNNENRVALTPGGVSQLISNGHRVLVETGAGLGSGFENEAYESAGAEIIADPKQVWDAEMVMKVKEPLPEEYVYFRKGLVLFTYLHLAAEPELAQALKDKGVTAIAYETVSEGRTLPLLTPMSEVAGRMAAQIGAQFLEKPKGGKGILLAGVPGVSRGKVTIIGGGVVGTNAAKMAVGLGADVTIIARNADRLRQLDDIFGHQIKTLISNPVNIADAVAEADLLICAVLIPGAKAPTLVTEEMVKQMKPGSVIVDVAIDQGGIVETVDHITTHDQPTYEKHGVVHYAVANMPGAVPRTSTIALTNVTVPYALQIANKGAVKALADNTALRAGLNTANGHVTYEAVARDLGYEYVPAEKALQDESSVAGA

Columns and labels:
Format in all cases: biochemical, Bacillus subtilis
[1] = substrate: NC(=O)C1=CN([C@@H]2O[C@H](COP(=O)(O)OP(=O)(O)OC[C@H]3O[C@@H](n4cnc5c(N)ncnc54)[C@H](OP(=O)(O)O)[C@@H]3O)[C@@H](O)[C@H]2O)C=CC1; test: KM and kcat for NADH/NADPH, reductive amination of pyruvate, wild type BasAlaDH; settings: other: reductive amination of pyruvate, 5 mM pyruvate, 200 mM ammonium acetate, 10-500 μM NADPH, 0.5 μM enzyme, Hepes/NaOH pH 8.3, 30.0 °C
From the text: (§1) The gene of the Bacillus subtilis AlaDH (SEQ ID No. 4) was amplified from the plasmid pUC18-AlaDH by polymerase chain reaction (PCR) using the oligodeoxy nucleotides AlaDHfw (SEQ ID No. 11) and AlaDHrv (SEQ ID No. 12), cleaved at the 3′ end using the restriction enzyme KpnI and ligated with the expression vector pASK-IBA35(+) (IBA GmbH, Göttingen) which had been cleaved with the restriction enzymes EheI and KpnI. The resulting expression plasmid pASK-IBA35(+)-AlaDH on which the BasAlaDH with an N-terminal His6-tag is encoded was verified by means of analytical restriction digestion and DNA sequencing. The plasmid which codes for the enzyme variant D196A/L197R was generated by site-directed mutagenesis using the oligodeoxy nucleotides AlaDH_D196A/L197Rfw (SEQ ID No. 13) and AlaDH_D196A/L197Rrv (SEQ ID No. 14), using the QuikChange method. The resulting expression plasmid pASK-IBA35(+)-AlaDH(D196A/L197R) was verified by means of DNA sequencing.
(§2) The expression plasmids for the BasAlaDH and its variant D196A/L197R were subsequently used for transforming E. coli BL21 (Sambrook et al. (2001) Molecular cloning: a laboratory manual, 3rd edition. Cold Spring Harbor Laboratory Press). Gene expression was induced in each case in LB medium (Sambrook et al. 2001) supplemented with 100 μg/ml ampicillin (2 L culture volume in a 5-l shake flask) at 30° C. in the exponential growth phase at OD550=0.5 by addition of 0.2 μg/ml anhydrotetracyclin (aTc; Acros, Geel, Belgium). After an induction time of 3 hours, the culture was harvested, and the cells were taken up in 40 mM Hepes/NaOH pH 7.5, 0.5 M NaCl and disrupted mechanically in a French press homogenizer (G. Heinemann, Schwäbisch Gmünd). The clear supernatant was applied to a Chelating Sepharose™ Fast Flow column loaded with Zn^2+ (bed volume 2.8 ml; GE Healthcare, Munich), and the enzymes with His6-tag fusion were eluted using a linear imidazole/HCl concentration gradient of from 0 to 500 mM in 40 mM Hepes/NaOH pH 7.5, 0.5 M NaCl. The elution fractions were concentrated by ultrafiltration and purified chromatographically by means of gel filtration on Superdex200 (GE Healthcare) in the presence of 25 mM Hepes/NaOH pH 8.3.
(§3) The Michaelis constant (KM) and the turnover number (kcat) of the two purified enzymes for the cosubstrates NADH and NADPH were determined with the aid of reductive amination of pyruvate, and the catalytic efficiency (kcat/KM) was calculated (Table 1).

[2] = substrate: NC(=O)C1=CN([C@@H]2O[C@H](COP(=O)(O)OP(=O)(O)OC[C@H]3O[C@@H](n4cnc5c(N)ncnc54)[C@H](O)[C@@H]3O)[C@@H](O)[C@H]2O)C=CC1; test: as above; settings: other: reductive amination of pyruvate, 5 mM pyruvate, 200 mM ammonium acetate, 10-500 μM NADH, 0.5 μM enzyme, Hepes/NaOH pH 8.3, 30.0 °C
From the text: as §1, §2, §3

[3] = substrate: NC(=O)C1=CN([C@@H]2O[C@H](COP(=O)(O)OP(=O)(O)OC[C@H]3O[C@@H](n4cnc5c(N)ncnc54)[C@H](OP(=O)(O)O)[C@@H]3O)[C@@H](O)[C@H]2O)C=CC1; test: KM and kcat for NADH/NADPH, reductive amination of pyruvate, BasAlaDH mutant D196A/L197R; settings: other: reductive amination of pyruvate, 5 mM pyruvate, 200 mM ammonium acetate, 10-500 μM NADPH, 0.5 μM enzyme, Hepes/NaOH pH 8.3, 30.0 °C
From the text: (§4) The conserved aspartate residue was the starting point for constructing the BasAlaDH enzyme variants D196A/L197R, with the SheAlaDH structure being used as template. […] As a result of the substitution L197R, the new cosubstrate specificity is favoured further as the result of the formation of salt bridges between the introduced arginine residue and the NADPH phosphate group.
as §1, §2, §3

[4] = substrate: NC(=O)C1=CN([C@@H]2O[C@H](COP(=O)(O)OP(=O)(O)OC[C@H]3O[C@@H](n4cnc5c(N)ncnc54)[C@H](O)[C@@H]3O)[C@@H](O)[C@H]2O)C=CC1; test: as above; settings: other: reductive amination of pyruvate, 5 mM pyruvate, 200 mM ammonium acetate, 10-500 μM NADH, 0.5 μM enzyme, Hepes/NaOH pH 8.3, 30.0 °C
From the text: as §4, §1, §2, §3

Row | Protein | Km [1] [µM] | kcat [1] [s⁻¹] | kcat/Km [1] [μM^−1/min^−1] | Km [2] [µM] | kcat [2] [s⁻¹] | kcat/Km [2] [μM^−1/min^−1] | Km [3] [µM] | kcat [3] [s⁻¹] | kcat/Km [3] [μM^−1/min^−1] | Km [4] [µM] | kcat [4] [s⁻¹] | kcat/Km [4] [μM^−1/min^−1]
1 | B1 | 448 ± 135 | 11.1 ± 1.9 | 1.5 | 14 ± 2 | 14 ± 0.35 | 59.9 |  |  |  |  |  | 
2 | B2 |  |  |  |  |  |  | 32 ± 3 | 28.83 ± 0.65 | 54.1 | 887 ± 360 | 44.48 ± 12 | 3.0
